Earlier results as cited in publication PMC4547496.
pKd: −log10 of the molar value.

Key:
[1] = target: BAG family nucleotide exchange factor (Homo sapiens) (UniProt Q99933); assay: FCPIA
[2] = target: Gαo (Homo sapiens) (UniProt P09471); assay: FCPIA
Sequence of UniProt P09471 (P09471 2-354): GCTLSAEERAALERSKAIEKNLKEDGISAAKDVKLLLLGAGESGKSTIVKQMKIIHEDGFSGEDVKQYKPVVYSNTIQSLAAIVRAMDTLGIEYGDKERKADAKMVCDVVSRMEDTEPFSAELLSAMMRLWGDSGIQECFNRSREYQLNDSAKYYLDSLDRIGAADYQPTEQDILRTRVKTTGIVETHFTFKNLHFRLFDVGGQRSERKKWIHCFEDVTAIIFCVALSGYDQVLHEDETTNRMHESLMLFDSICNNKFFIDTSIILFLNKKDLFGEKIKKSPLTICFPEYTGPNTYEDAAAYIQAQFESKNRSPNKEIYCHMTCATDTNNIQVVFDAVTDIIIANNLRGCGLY

Sequence of UniProt Q99933 (Q99933 whole entry): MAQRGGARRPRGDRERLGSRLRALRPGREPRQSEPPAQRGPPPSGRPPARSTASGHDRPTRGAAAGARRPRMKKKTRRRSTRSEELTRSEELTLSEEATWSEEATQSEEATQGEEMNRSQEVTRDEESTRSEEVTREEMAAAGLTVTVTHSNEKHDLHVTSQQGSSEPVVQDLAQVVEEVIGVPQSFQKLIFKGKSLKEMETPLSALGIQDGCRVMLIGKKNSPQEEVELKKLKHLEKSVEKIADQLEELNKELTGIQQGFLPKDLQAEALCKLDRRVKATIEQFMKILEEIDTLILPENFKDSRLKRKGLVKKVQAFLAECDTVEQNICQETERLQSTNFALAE

**Q.** With Hsp70 (from UniProt P0DMV8) as the substance, how does the pKd [1] read?
**A.** 6.00

**Q.** With RGS4 (from UniProt P49798) as the substance, how does the pKd [2] read?
**A.** 8.40
